Key:
Type in all cases: cell-based
[1] = test system: N2a cells overexpressing human wild-type APP-695; assay: APP CTFs by Western blot in N2a cells over-expressing APP-695; details: for alterations in APP CTFs: ligand controls for specificity, data not shown
Description: (§1) FIGS. 9a-f: CD40L modulates APP processing in vivo and in vitro. Fig. a: Brain homogenates were prepared from 12-month-old TgAPPsw/CD40L-deficient, control IgG-treated PSAPP, and anti-CD40L antibody-treated PSAPP animals. Representative lanes are shown from each mouse group. […] Fig. d: Cell lysates were prepared from N2a cells overexpressing human wild-type APP-695 and treated with 2 μg/mL of heat-inactivated CD40L (control) or CD40L protein (CD40 ligation) for 24 hours. […] Fig. f: A-β1-40 and A-β1-42 peptides were analyzed in conditioned media from human wild-type APP-695 overexpressing N2a cells by ELISA (n=3 for each condition). Data are represented as percentage of Aβ peptide secreted 24 hours after CD40 ligation relative to heat-inactivated CD40L treatment. […] Similar results were obtained with antibody 6687 or Chemicon polyclonal APP C-terminal antibody (data not shown).
(§2) We also employed an N2a cell line that stably over-expresses the human wild-type APP-695 transgene (Thinakaran, G., et al., “Metabolism of the Swedish’ amyloid precursor protein variant in neuro2a (N2a) cells, Evidence that cleavage at the ‘beta-secretase’ site occurs in the golgi apparatus,” J. Biol. Chem. 271, 9390-9397 (1996)). […] This effect could be alleviated by co-treatment with anti-CD40L antibody, as we detected anti-CD40L antibody in brains of treated PSAPP mice. To determine whether an incrreased ratio of β-CTF to α-CTF after CD40L treatment might be associated with secretion of Aβ, we measured the latter in conditioned transfected N2a cell media by ELISA. […] To confirm the specificity of this effect, we treated these cells with other TNF ligand superfamily members TNF-α or Fas ligand the additional control ligands transforming growth factor-β1 or neurotrophin.
Western blot (FIGS. 8-9). Mouse brains or cultured cells were lysed in ice-cold lysis buffer as described above, and an aliquot corresponding to 50 μg of total protein was electrophoretically separated using 16.5% Tris-tricine gels (Bio-Rad). Electrophoresed proteins were then transferred to PVDF membranes (Bio-Rad), washed in dH20, and blocked for 1 hour at ambient temperature in Tris-buffered saline (TBS) containing 5% (w/v) of non-fat dry milk. After blocking membranes were hybridized for 1 hour at ambient temperature with various antibodies against the C-terminus of APP or the N-terminus of Aβ. […] Densitometric analysis was performed using the Fluor-S Multilmager™ with Quantity One™ software (Bio-Rad). […] Further β- and γ-secretase activities were quantified in Tg APPsw and Tg APPsw/CD40L def. mice using available kits based on secretase-specific peptides conjugated to fluorgenic reporter molecules (R&D Systems, Minneapolis, Minn., USA). […]

[2] = test system: N2a cells overexpressing human wild-type APP-695; assay: secreted Aβ ELISA in conditioned media of N2a cells over-expressing APP-695; details: for alterations in secretion of Aβ species: ligand controls for specificity, data not shown
Description: as §1, §2
ELISA analysis (FIGS. 8-9). Mouse brains (Control, Tg APPsw, CD40L def., and Tg APPsw/CD40L def.) were isolated under sterile conditions on ice and placed in ice-cold lysis buffer (containing 20 mM Tris, pH 7.5, 150 mM NaCl, 1 mM EDTA, 1 mM EGTA, 1% v/v Triton X-100, 2.5 mM sodium pyrophosphate, 1 mM β-glycerolphosphate, 1 mM Na3VO4, 1 µg/mL leupeptin, and 1 mM PMSF). Brains were then sonicated on ice for approximately 3 minutes, let stand for 15 minutes at 4° C., and centrifuged at 15,000 rpm for 15 minutes. Total Aβ species were detected by acid extraction of brain homogenates in 5 M guanidine buffer (Johnson-Wood, K. et al., “Amyloid precursor protein processing and A beta42 deposition in a transgenic mouse model of Alzheimer disease,” Proc. Natl. Acad. Sci USA 94, 1550-1555 (1997)), followed by a 1:10 dilution in lysis buffer. Aβ1-40 and Aβ1-42 and total Aβ (estimated by summing Aβ1-40 and Aβ1-42 values) were quantified in these samples using the Aβ1-40 and Aβ1-42 enzyme-linked immunosorbent assay (ELISA) kits (BioSource, Camarillo, Calif., USA) in accordance with the manufacurer's instruction, except that standards were diluted such that the final concentration included 0.5 M guanidine buffer. Total protein was quantified in brain homogenates using the Bio-Rad protein assay (Bio-Rad, Richmond, Calif., USA); thus, ELISA values were reported as ng of Aβ1-x/wet g of brain. For in vitro analysis of Aβ levels, conditioned media from human APP-over-expressing N2a cells were collected and analyzed at a 1:1 dilution using the method described above, and values were rreported as percentage of Aβ1-x secreted relative to control. […]

[3] = test system: N2a cell line that stably overexpresses the human wild-type APP-751 transgene; assay: α-CTF by Western blot in N2a cells overexpressing APP-751; details: CD40L treatment over time
From the text: We have recently identified CD40 on neurons and neuron-like cells (including the N2a neuroblastoma cell line), and have shown that neuronal CD40 is functional, being intimately involved in neuronal development, survival, and maturation (Tan et al., “CD40 is expressed and functional on neuronal cells,” EMBO J. (2002) 21:643-52). Given our in vivo findings, we wished to determine whether CD40L could directly act on neurons to modulate APP processing. An N2a cell line was established that stably overexpresses (by ˜3 fold) the human wild-type APP-751 transgene (Xia et al., “Enhanced production and oligomerizatio of the 42-residue amyloid beta-protein by Chinese hamster ovary cells stably expressing mutant presenilins,” J. Biol. Chem. (1997) 272:7977-82). […] To confirm whether this reduction in α-CTF might be associated with amyloidogenic processing of APP, we measured secreted Aβ in conditioned media. […] Thus CD40L is able to directly promote amyloidogenic APP processing in neurons or neuron-like cells. […] As the vast majority of cases of AD are associated with accumulation of Aβ from a normal APP sequence, the observation that the processing of normal APP can be pushed towards amyloidogenicity by CD40L is of interest. […]
Western blot. […] Densitometric analysis was perfromed using the Fluor-S Multilmager™ with Quantity One™ software (Bio-Rad). […]

[4] = test system: N2a cell line that stably overexpresses the human wild-type APP-751 transgene; assay: secreted Aβ in conditioned media of N2a cells overexpressing APP-751; details: CD40L treatment over time
From the text: We have recently identified CD40 on neurons and neuron-like cells (including the N2a neuroblastoma cell line), and have shown that neuronal CD40 is functional, being intimately involved in neuronal development, survival, and maturation (Tan et al., “CD40 is expressed and functional on neuronal cells,” EMBO J. (2002) 21:643-52). Given our in vivo findings, we wished to determine whether CD40L could directly act on neurons to modulate APP processing. […] To confirm whether this reduction in α-CTF might be associated with amyloidogenic processing of APP, we measured secreted Aβ in conditioned media. […]
ELISA analysis. […] Total Aβ species were detected by acid extraction of brain homogenates in 5 M guanidine buffer (Johnson-Wood et al., “Amyloid precursor protein processing and A beta42 deposition in a transgenic mouse model of Alzheimer disease,” Proc. Natl. Acad. Sci. USA (1997) 94:1550-55), followed by a 1:10 dilution in lysis buffer. Aβ1-40, Aβ1-42, and total Aβ (estimated by summing Aβ1-40 and Aβ1-42 values) were quantified in these samples using the Aβ1-40 and Aβ1-42 enzyme-linked immunosorbent assay (ELISA) kits (QCB) in accordance with the manufacturer's instruction, except that standards were diluted such that the final concentration included 0.5 M guanidine buffer. […]

[5] = 24 hour treatment, 2 μg/mL, relative to heat-inactivated CD40L

## TNF-α [reference compound]
[1]
  alterations in APP CTFs: did not observe alterations
[2]
  alterations in secretion of Aβ species: did not observe alterations

## transforming growth factor-β1: additional control ligand [reference compound]
[1]
  alterations in APP CTFs: did not observe alterations
[2]
  alterations in secretion of Aβ species: did not observe alterations

B1: CD40L: CD40L protein (CD40 ligation) added to N2a cells at 2 μg/mL (protein, UniProt P29965 113-261, looked up)
CD40 ligand, soluble form: MQKGDQNPQIAAHVISEASSKTTSVLQWAEKGYYTMSNNLVTLENGKQLTVKRQGLYYIYAQVTFCSNREASSQAPFIASLCLKSPGRFERILLRAANTHSSAKPCGQQSIHLGGVFELQPGASVFVNVTDPSQVSHGTGFTSFGLLKL
[3]
  α-CTF by Western blot: time-dependent decrease
[4]
  secreted Aβ1-40 levels in conditioned media: time-dependent increase
  secreted Aβ1-42 levels in conditioned media: time-dependent increase
[1]; 2 μg/mL, serum-free conditions, 24 hours, versus heat-inactivated CD40L
  ratio of APP β-CTF to α-CTF: increased ratio
[2]; [5]
  increase in secreted Aβ1-40 levels: ~85%
  increase in secreted Aβ1-42 levels: ~50%

B2: Fas ligand: other TNF ligand superfamily member used as ligand control (protein, UniProt P48023 130-281, looked up)
Tumor necrosis factor ligand …: QIGHPSPPPEKKELRKVAHLTGKSNSRSMPLEWEDTYGIVLLSGVKYKKGGLVINETGLYFVYSKVYFRGQSCNNLPLSHKVYMRNSKYPQDLVMMEGKMMSYCTTGQMWARSSYLGAVFNLTSADHLYVNVSELSLVNFEESQTFFGLYKL
[1]
  alterations in APP CTFs: did not observe alterations
[2]
  alterations in secretion of Aβ species: did not observe alterations

From patent US20040146949A1, “Methods and compounds for disruption of CD40R/CD40L signaling in the treatment of alzheimer's disease” (priority 2002, published 2004)
